± gives the standard deviation of the averaged measurements.
B1: library; a variant is named by its letters at N, in order (parent)
chain: GCUGUCACCGAGAAACUGUGAAGUAUAUCUUAAACCUGGGCACUUAAAAGAUAUAUGGAGUUAGUAGUGCAACCUGCUCGGUCUGAUGAGUCCNNNNNNGGACGAAACAGC

Columns and labels:
cyclic di-GMP [1] = variants of: B1; assay: normalized RNA/DNA level without ligand (relative to sTRSVctl = 100) (log10 (% of sTRSVctl)); HEK293T; ligand: cyclic di-GMP (c-di-GMP-II aptamer); higher = less ribozyme self-cleavage, higher mRNA level; details: reporter: mCherry (pCS4076), ligand present: no
How it was run: (§1)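 HEK293T cells were transfected with library plasmids carrying ribozyme switches linked to an mCherry reporter, or an eGFP reporter in some ligand experiments, at 4 µg per well of a 6-well plate, with any ligand added 1 h beforehand. After 72 h, total RNA was extracted with EDTA, reverse-transcribed, amplified, barcoded and sequenced. RNA level was defined as RNA reads over DNA reads, normalized to a spiked-in non-cleaving sequence or to the top-ranked sequences. That value was multiplied by 100 and converted to log10, the top set was 25 sequences, and only sequences with ≥100 DNA reads were retained.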

cyclic di-GMP [2] = variants of: B1; assay: normalized RNA/DNA level with ligand (relative to sTRSVctl = 100) (log10 (% of sTRSVctl)); HEK293T; ligand: cyclic di-GMP (c-di-GMP-II aptamer); ligand concentration (+) RNA-Seq: 1 mM; higher = less ribozyme self-cleavage, higher mRNA level; details: reporter: mCherry (pCS4076), ligand present: yes
How it was run: as §1

Row | Variant | normalized RNA/DNA level without ligand (log10) (cyclic di-GMP [1]) | normalized RNA/DNA level with ligand (log10) (cyclic di-GMP [2])
1 | GCUGUCACCGAGAAACUGUGAAGUAUAUCUUAAACCUGGGCACUUAAAAGAUAUAUGGAGUUAGUAGUGCAACCUGCUCGGUCUGAUGAGUCCCCUUUUGGACGAAACAGC [CCUUUU] | 1.59 ± 0.065 | 1.77 ± 0.073
2 | GCUGUCACCGAGAAACUGUGAAGUAUAUCUUAAACCUGGGCACUUAAAAGAUAUAUGGAGUUAGUAGUGCAACCUGCUCGGUCUGAUGAGUCCAUAAUGGGACGAAACAGC [AUAAUG] | 1.58 ± 0.034 | 1.75 ± 0.059
3 | GCUGUCACCGAGAAACUGUGAAGUAUAUCUUAAACCUGGGCACUUAAAAGAUAUAUGGAGUUAGUAGUGCAACCUGCUCGGUCUGAUGAGUCCUUAUUCGGACGAAACAGC [UUAUUC] | 1.76 ± 0.073 | 1.88 ± 0.14
4 | GCUGUCACCGAGAAACUGUGAAGUAUAUCUUAAACCUGGGCACUUAAAAGAUAUAUGGAGUUAGUAGUGCAACCUGCUCGGUCUGAUGAGUCCCCAGCGGGACGAAACAGC [CCAGCG] | 1.76 ± 0.036 | 1.91 ± 0.097
5 | GCUGUCACCGAGAAACUGUGAAGUAUAUCUUAAACCUGGGCACUUAAAAGAUAUAUGGAGUUAGUAGUGCAACCUGCUCGGUCUGAUGAGUCCUGGGGGGGACGAAACAGC [UGGGGG] | 1.79 ± 0.055 | 1.87 ± 0.09
6 | GCUGUCACCGAGAAACUGUGAAGUAUAUCUUAAACCUGGGCACUUAAAAGAUAUAUGGAGUUAGUAGUGCAACCUGCUCGGUCUGAUGAGUCCACAUCAGGACGAAACAGC [ACAUCA] | 1.683 ± 0.013 | 1.79 ± 0.063
7 | GCUGUCACCGAGAAACUGUGAAGUAUAUCUUAAACCUGGGCACUUAAAAGAUAUAUGGAGUUAGUAGUGCAACCUGCUCGGUCUGAUGAGUCCUUCUCAGGACGAAACAGC [UUCUCA] | 1.78 ± 0.073 | 1.9 ± 0.087
8 | GCUGUCACCGAGAAACUGUGAAGUAUAUCUUAAACCUGGGCACUUAAAAGAUAUAUGGAGUUAGUAGUGCAACCUGCUCGGUCUGAUGAGUCCCGAACCGGACGAAACAGC [CGAACC] | 1.679 ± 0.01 | 1.8 ± 0.098
9 | GCUGUCACCGAGAAACUGUGAAGUAUAUCUUAAACCUGGGCACUUAAAAGAUAUAUGGAGUUAGUAGUGCAACCUGCUCGGUCUGAUGAGUCCGGGUAUGGACGAAACAGC [GGGUAU] | 1.75 ± 0.041 | 1.9 ± 0.23
10 | GCUGUCACCGAGAAACUGUGAAGUAUAUCUUAAACCUGGGCACUUAAAAGAUAUAUGGAGUUAGUAGUGCAACCUGCUCGGUCUGAUGAGUCCCGAAAUGGACGAAACAGC [CGAAAU] | 1.42 ± 0.055 | 1.63 ± 0.12
11 | GCUGUCACCGAGAAACUGUGAAGUAUAUCUUAAACCUGGGCACUUAAAAGAUAUAUGGAGUUAGUAGUGCAACCUGCUCGGUCUGAUGAGUCCCUUCACGGACGAAACAGC [CUUCAC] | 1.734 ± 0.0076 | 1.86 ± 0.088
12 | GCUGUCACCGAGAAACUGUGAAGUAUAUCUUAAACCUGGGCACUUAAAAGAUAUAUGGAGUUAGUAGUGCAACCUGCUCGGUCUGAUGAGUCCUCGGGGGGACGAAACAGC [UCGGGG] | 1.69 ± 0.06 | 1.83 ± 0.11
13 | GCUGUCACCGAGAAACUGUGAAGUAUAUCUUAAACCUGGGCACUUAAAAGAUAUAUGGAGUUAGUAGUGCAACCUGCUCGGUCUGAUGAGUCCUUGGGAGGACGAAACAGC [UUGGGA] | 1.57 ± 0.1 | 1.72 ± 0.1

— the supplement of paper PMC6757056
